Experimental data from paper PMC2756588.

T1: Bzz1-2, P38822
T1 sequence (P38822 568-633, looked up): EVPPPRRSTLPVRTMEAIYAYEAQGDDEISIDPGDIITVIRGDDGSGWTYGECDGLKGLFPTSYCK

T2: Cyk3, Q07533
T2 sequence (Q07533 1-83, looked up): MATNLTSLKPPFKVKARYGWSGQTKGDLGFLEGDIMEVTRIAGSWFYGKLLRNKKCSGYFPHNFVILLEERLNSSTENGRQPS

T3: Fus1, P11710
T3 sequence (P11710 432-512, looked up): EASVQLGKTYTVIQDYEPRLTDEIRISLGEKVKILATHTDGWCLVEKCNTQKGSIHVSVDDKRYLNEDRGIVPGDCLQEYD

T4: Cdc25, P04821
T4 sequence (P04821 50-136, looked up): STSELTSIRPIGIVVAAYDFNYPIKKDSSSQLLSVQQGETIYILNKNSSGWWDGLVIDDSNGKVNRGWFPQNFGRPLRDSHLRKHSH

T5: Lsb1, P53281
T5 sequence (P53281 45-122, looked up): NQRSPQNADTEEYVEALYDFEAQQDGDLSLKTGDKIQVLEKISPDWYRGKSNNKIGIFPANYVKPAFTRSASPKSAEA

T6: Hse1, P38753
T6 sequence (P38753 208-285, looked up): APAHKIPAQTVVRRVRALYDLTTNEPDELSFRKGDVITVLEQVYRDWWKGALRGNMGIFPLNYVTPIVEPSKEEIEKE

T7: Pin3, Q06449
T7 sequence (Q06449 53-122, looked up): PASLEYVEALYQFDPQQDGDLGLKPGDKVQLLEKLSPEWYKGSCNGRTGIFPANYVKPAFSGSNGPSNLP

T8: Nbp2, Q12163
T8 sequence (Q12163 103-180, looked up): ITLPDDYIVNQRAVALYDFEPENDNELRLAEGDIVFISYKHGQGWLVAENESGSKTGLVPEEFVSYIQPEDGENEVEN

T9: Bzz1-1, P38822
T9 sequence (P38822 478-572, looked up): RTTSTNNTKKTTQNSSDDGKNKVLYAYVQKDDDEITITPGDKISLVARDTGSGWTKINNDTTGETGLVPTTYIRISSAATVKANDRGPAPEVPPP

T10: Pex13, P80667
T10 sequence (P80667 295-386, looked up): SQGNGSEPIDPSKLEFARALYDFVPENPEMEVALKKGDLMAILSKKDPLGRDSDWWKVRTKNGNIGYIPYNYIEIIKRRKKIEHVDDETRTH

T11: Abp1, P15891
T11 sequence (P15891 535-592, looked up): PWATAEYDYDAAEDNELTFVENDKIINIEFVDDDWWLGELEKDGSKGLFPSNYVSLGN

T12: Boi1, P38041
T12 sequence (P38041 1-86, looked up): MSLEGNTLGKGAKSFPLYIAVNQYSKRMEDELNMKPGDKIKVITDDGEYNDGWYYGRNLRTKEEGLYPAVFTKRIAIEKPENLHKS

T13: Lsb4, P32793
T13 sequence (P32793 402-468, looked up): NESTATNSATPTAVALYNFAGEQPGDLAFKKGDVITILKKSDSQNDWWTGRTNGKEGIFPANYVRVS

T14: Sla1-2, P32790
T14 sequence (P32790 60-140, looked up): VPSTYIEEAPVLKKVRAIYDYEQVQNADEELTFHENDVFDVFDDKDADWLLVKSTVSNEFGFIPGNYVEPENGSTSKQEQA

T15: Bud14, P27637
T15 sequence (P27637 247-328, looked up): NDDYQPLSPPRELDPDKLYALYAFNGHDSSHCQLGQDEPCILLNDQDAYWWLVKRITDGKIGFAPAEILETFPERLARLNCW

T16: Myo5, Q04439
T16 sequence (Q04439 1072-1160, looked up): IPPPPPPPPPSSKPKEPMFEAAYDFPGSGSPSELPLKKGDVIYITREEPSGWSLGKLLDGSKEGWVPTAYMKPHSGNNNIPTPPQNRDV

T17: Boi2, P39969
T17 sequence (P39969 32-116, looked up): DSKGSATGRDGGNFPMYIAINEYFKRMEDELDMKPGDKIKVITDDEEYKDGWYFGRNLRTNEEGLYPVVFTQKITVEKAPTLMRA

T18: Lsb3, P43603
T18 sequence (P43603 385-451, looked up): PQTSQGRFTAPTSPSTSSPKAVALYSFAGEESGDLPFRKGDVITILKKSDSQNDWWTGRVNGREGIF

T19: Sla1-3, P32790
T19 sequence (P32790 344-424, looked up): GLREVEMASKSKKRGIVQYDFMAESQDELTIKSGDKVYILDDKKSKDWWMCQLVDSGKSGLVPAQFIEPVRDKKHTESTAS

T20: Hof1, Q05080
T20 sequence (Q05080 590-669, looked up): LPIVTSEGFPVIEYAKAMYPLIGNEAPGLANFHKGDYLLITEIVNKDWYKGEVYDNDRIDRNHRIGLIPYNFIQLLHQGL

T21: Bbc1, P47068
T21 sequence (P47068 1-78, looked up): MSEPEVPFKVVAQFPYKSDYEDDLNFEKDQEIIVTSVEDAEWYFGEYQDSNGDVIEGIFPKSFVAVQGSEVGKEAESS

B1: unnamed (peptide)
chain: SHRLWLYAAPKRPKT
B2: unnamed (peptide)
chain: NNFYRPLLRSVLVLL
B3: unnamed (peptide)
chain: VLRFLGFPLPIFEKG
B4: unnamed (peptide)
chain: LKQRFFLMFPKSIIW
B5: unnamed (peptide)
chain: ITHRLRISIPGITGR
B6: unnamed (peptide)
chain: LLLLFVPDSPYDPAI

Target: T1, Bzz1-2, P38822
Experiment: SPOT array
Conditions: median of control spots 4538

| SPOT intensity | Binder |
| --- | --- |
| 0 | B1 |
| 2 | B2 |
| 0 | B3 |
| 0 | B4 |
| 0 | B5 |
| 0 | B6 |

Target: T2, Cyk3, Q07533
Experiment: SPOT array
Conditions: median of control spots 1451

| SPOT intensity | Binder |
| --- | --- |
| 4 | B1 |
| 9 | B2 |
| 7 | B3 |
| 4 | B4 |
| 0 | B5 |
| 0 | B6 |

Target: T3, Fus1, P11710
Experiment: SPOT array
Conditions: median of control spots 1200

| SPOT intensity | Binder |
| --- | --- |
| 20 | B1 |
| 13 | B2 |
| 78 | B3 |
| 38 | B4 |
| 39 | B5 |
| 1 | B6 |

Target: T4, Cdc25, P04821
Experiment: SPOT array
Conditions: median of control spots 969

| SPOT intensity | Binder |
| --- | --- |
| 5 | B1 |
| 22 | B2 |
| 28 | B3 |
| 25 | B4 |
| 29 | B5 |
| 0 | B6 |

Target: T5, Lsb1, P53281
Experiment: SPOT array
Conditions: median of control spots 388

| SPOT intensity | Binder |
| --- | --- |
| 0 | B1 |
| 0 | B2 |
| 0 | B3 |
| 7 | B4 |
| 231 | B5 |
| 0 | B6 |

Target: T6, Hse1, P38753
Experiment: SPOT array
Conditions: median of control spots 1727

| SPOT intensity | Binder |
| --- | --- |
| 8 | B1 |
| 0 | B2 |
| 6 | B3 |
| 8 | B4 |
| 11 | B5 |
| 0 | B6 |

Target: T7, Pin3, Q06449
Experiment: SPOT array
Conditions: median of control spots 2171

| SPOT intensity | Binder |
| --- | --- |
| 13 | B1 |
| 5 | B2 |
| 3 | B3 |
| 54 | B4 |
| 69 | B5 |
| 0 | B6 |

Target: T8, Nbp2, Q12163
Experiment: SPOT array
Conditions: median of control spots 357

| SPOT intensity | Binder |
| --- | --- |
| 1 | B1 |
| 3 | B2 |
| 41 | B3 |
| 9 | B4 |
| 32 | B5 |
| 1 | B6 |

Target: T9, Bzz1-1, P38822
Experiment: SPOT array
Conditions: median of control spots 4446

| SPOT intensity | Binder |
| --- | --- |
| 2 | B1 |
| 3 | B2 |
| 0 | B3 |
| 0 | B4 |
| 1 | B5 |
| 0 | B6 |

Target: T10, Pex13, P80667
Experiment: SPOT array
Conditions: median of control spots 1341

| SPOT intensity | Binder |
| --- | --- |
| 8 | B1 |
| 4 | B2 |
| 4 | B3 |
| 21 | B4 |
| 32 | B5 |
| 0 | B6 |

Target: T11, Abp1, P15891
Experiment: SPOT array
Conditions: median of control spots 935

| SPOT intensity | Binder |
| --- | --- |
| 47 | B1 |
| 14 | B2 |
| 19 | B3 |
| 63 | B4 |
| 118 | B5 |
| 0 | B6 |

Target: Rvs167, P39743
Experiment: SPOT array
Conditions: median of control spots 2707

Chain of Rvs167, P39743 (P39743 419-482): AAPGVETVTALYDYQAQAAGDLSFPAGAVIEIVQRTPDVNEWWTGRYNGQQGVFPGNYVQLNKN

| SPOT intensity | Binder |
| --- | --- |
| 0 | B1 |
| 2 | B2 |
| 0 | B3 |
| 0 | B4 |
| 0 | B5 |
| 0 | B6 |

Target: GST
Experiment: SPOT array
Conditions: median of control spots 978

| SPOT intensity | Binder |
| --- | --- |
| 0 | B1 |
| 1 | B2 |
| 0 | B3 |
| 0 | B4 |
| 0 | B5 |
| 1 | B6 |

Target: T12, Boi1, P38041
Experiment: SPOT array
Conditions: median of control spots 1162

| SPOT intensity | Binder |
| --- | --- |
| 1 | B1 |
| 6 | B2 |
| 1 | B3 |
| 2 | B4 |
| 1 | B5 |
| 1 | B6 |

Target: T13, Lsb4, P32793
Experiment: SPOT array
Conditions: median of control spots 397

| SPOT intensity | Binder |
| --- | --- |
| 0 | B1 |
| 0 | B2 |
| 0 | B3 |
| 0 | B4 |
| 5 | B5 |
| 0 | B6 |

Target: T14, Sla1-2, P32790
Experiment: SPOT array
Conditions: median of control spots 712

| SPOT intensity | Binder |
| --- | --- |
| 3 | B1 |
| 0 | B2 |
| 0 | B3 |
| 0 | B4 |
| 4 | B5 |
| 0 | B6 |

Target: Bem1-2, P29366
Experiment: SPOT array
Conditions: median of control spots 4347

Chain of Bem1-2, P29366 (P29366 139-227): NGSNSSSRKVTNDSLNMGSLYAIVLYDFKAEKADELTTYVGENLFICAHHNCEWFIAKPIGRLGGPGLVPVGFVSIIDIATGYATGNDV

| SPOT intensity | Binder |
| --- | --- |
| 0 | B1 |
| 3 | B2 |
| 2 | B3 |
| 1 | B4 |
| 6 | B5 |
| 0 | B6 |

Target: T15, Bud14, P27637
Experiment: SPOT array
Conditions: median of control spots 956

| SPOT intensity | Binder |
| --- | --- |
| 5 | B1 |
| 14 | B2 |
| 17 | B3 |
| 27 | B4 |
| 8 | B5 |
| 3 | B6 |

Target: T16, Myo5, Q04439
Experiment: SPOT array
Conditions: median of control spots 471

| SPOT intensity | Binder |
| --- | --- |
| 0 | B1 |
| 0 | B2 |
| 0 | B3 |
| 0 | B4 |
| 4 | B5 |
| 0 | B6 |

Target: Sho1, P40073
Experiment: SPOT array
Conditions: median of control spots 1148

Chain of Sho1, P40073 (P40073 287-367): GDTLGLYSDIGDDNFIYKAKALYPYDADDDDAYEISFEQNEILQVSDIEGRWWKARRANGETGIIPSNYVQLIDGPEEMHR

| SPOT intensity | Binder |
| --- | --- |
| 39 | B1 |
| 17 | B2 |
| 43 | B3 |
| 53 | B4 |
| 191 | B5 |
| 0 | B6 |

Target: T17, Boi2, P39969
Experiment: SPOT array
Conditions: median of control spots 1161

| SPOT intensity | Binder |
| --- | --- |
| 0 | B1 |
| 2 | B2 |
| 1 | B3 |
| 1 | B4 |
| 1 | B5 |
| 0 | B6 |

Target: T18, Lsb3, P43603
Experiment: SPOT array
Conditions: median of control spots 406

| SPOT intensity | Binder |
| --- | --- |
| 5 | B1 |
| 1 | B2 |
| 0 | B3 |
| 0 | B4 |
| 9 | B5 |
| 0 | B6 |

Target: T19, Sla1-3, P32790
Experiment: SPOT array
Conditions: median of control spots 5475

| SPOT intensity | Binder |
| --- | --- |
| 16 | B1 |
| 4 | B2 |
| 0 | B3 |
| 17 | B4 |
| 2 | B5 |
| 2 | B6 |

Target: Myo3, P36006
Experiment: SPOT array
Conditions: median of control spots 468

| SPOT intensity | Binder |
| --- | --- |
| 6 | B1 |
| 0 | B2 |
| 1 | B3 |
| 12 | B4 |
| 37 | B5 |
| 0 | B6 |

Target: Bem1-1, P29366
Experiment: SPOT array
Conditions: median of control spots 4282

Chain of Bem1-1, P29366 (P29366 55-141): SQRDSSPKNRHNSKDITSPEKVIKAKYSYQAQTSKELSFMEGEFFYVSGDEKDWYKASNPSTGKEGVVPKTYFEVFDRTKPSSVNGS

| SPOT intensity | Binder |
| --- | --- |
| 0 | B1 |
| 0 | B2 |
| 0 | B3 |
| 0 | B4 |
| 0 | B5 |
| 0 | B6 |

Target: T20, Hof1, Q05080
Experiment: SPOT array
Conditions: median of control spots 4086

| SPOT intensity | Binder |
| --- | --- |
| 5 | B1 |
| 0 | B2 |
| 4 | B3 |
| 5 | B4 |
| 1 | B5 |
| 0 | B6 |

Target: T21, Bbc1, P47068
Experiment: SPOT array
Conditions: median of control spots 796

| SPOT intensity | Binder |
| --- | --- |
| 34 | B1 |
| 37 | B2 |
| 30 | B3 |
| 23 | B4 |
| 24 | B5 |
| 0 | B6 |
